Blank lines part the entries; values can stand above or below the substance they belong to.
Tests used:
[1] = biological target: mixture of biotinylated K63 poly-ubiquitin chains (Ub2-7) (UniProt P0CG48); assay: BLI
[2] = biological target: N-terminally fluorescein-labeled CEP55 ZF mutant E460A (human) (UniProt Q53EZ4); assay: fluorescence polarisation
[3] = biological target: CEP55 His-NOA (His-tag version of the human CEP55 NOA fragment, residues 304–396) (human) (UniProt Q53EZ4); assay: BLI
CEP55 His-NOA (His-tag version of the human CEP55 NOA fragment, residues 304–396) (human), sequence (Q53EZ4 304-396): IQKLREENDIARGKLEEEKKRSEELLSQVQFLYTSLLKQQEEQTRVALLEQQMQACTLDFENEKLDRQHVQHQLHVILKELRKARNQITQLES

N-terminally fluorescein-labeled CEP55 ZF mutant E460A (human), sequence (Q53EZ4 435-464 E460A): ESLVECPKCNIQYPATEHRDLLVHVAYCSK

Kd [1]: 2100 nM
Substance: Strep-tag II CEP55 ZF (StrepII-tag version of CEP55 ZF peptide, residues 435–464) (from UniProt Q53EZ4-1 435-464)

fold weaker affinity than WT [2]: 20 fold
Substance: mono-ubiquitin (from UniProt P0CG48 1-76) (natural protein)

fold by which the KD is higher than that of M1-linked Ub4 [3]: 30 fold
Substance: K63-linked tetra-ubiquitin (Ub4) (from UniProt P0CG48 1-76) (complex)
